# Laboratory results published in US12534541B2, “Anti-PTK7 antibody and uses thereof” (MABCARE THERAPEUTICS, priority 2023, dated 2026).
# T1: murine PTK7 protein (Mus musculus, UniProt Q8BKG3)
# T1 construct: purchased Acrobiosystems PT7-M52H3
# T1 sequence (Q8BKG3 23-1062): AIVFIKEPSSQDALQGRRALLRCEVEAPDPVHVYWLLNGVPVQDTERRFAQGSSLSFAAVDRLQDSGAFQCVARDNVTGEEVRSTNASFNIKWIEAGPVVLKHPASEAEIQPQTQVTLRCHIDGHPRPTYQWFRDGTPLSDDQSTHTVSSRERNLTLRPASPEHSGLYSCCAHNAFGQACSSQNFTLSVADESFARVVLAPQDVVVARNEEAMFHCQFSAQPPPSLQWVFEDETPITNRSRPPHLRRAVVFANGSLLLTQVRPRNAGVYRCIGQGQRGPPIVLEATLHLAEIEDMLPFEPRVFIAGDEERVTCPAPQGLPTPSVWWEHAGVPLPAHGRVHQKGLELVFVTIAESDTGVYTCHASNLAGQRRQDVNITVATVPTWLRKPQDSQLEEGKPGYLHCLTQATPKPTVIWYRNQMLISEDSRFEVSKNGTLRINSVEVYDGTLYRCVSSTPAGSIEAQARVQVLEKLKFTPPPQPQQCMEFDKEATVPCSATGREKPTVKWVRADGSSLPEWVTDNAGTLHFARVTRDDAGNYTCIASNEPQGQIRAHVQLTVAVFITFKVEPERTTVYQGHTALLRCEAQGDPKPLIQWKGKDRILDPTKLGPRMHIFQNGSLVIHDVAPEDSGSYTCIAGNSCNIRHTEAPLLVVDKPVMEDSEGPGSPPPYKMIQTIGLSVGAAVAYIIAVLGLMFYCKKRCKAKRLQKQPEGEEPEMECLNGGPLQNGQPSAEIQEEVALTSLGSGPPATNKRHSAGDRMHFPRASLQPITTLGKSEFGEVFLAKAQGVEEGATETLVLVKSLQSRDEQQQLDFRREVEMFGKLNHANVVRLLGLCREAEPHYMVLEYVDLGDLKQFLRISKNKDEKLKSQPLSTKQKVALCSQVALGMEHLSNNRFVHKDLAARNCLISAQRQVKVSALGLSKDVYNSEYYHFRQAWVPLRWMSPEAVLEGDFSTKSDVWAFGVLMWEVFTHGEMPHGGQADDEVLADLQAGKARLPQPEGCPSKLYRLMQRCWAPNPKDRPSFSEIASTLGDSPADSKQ
# T2: Human PTK7 protein (Homo sapiens, UniProt Q13308)
# T2 construct: purchased Acrobiosystems PT7-H52H3
# T2 sequence (Q13308 31-1070): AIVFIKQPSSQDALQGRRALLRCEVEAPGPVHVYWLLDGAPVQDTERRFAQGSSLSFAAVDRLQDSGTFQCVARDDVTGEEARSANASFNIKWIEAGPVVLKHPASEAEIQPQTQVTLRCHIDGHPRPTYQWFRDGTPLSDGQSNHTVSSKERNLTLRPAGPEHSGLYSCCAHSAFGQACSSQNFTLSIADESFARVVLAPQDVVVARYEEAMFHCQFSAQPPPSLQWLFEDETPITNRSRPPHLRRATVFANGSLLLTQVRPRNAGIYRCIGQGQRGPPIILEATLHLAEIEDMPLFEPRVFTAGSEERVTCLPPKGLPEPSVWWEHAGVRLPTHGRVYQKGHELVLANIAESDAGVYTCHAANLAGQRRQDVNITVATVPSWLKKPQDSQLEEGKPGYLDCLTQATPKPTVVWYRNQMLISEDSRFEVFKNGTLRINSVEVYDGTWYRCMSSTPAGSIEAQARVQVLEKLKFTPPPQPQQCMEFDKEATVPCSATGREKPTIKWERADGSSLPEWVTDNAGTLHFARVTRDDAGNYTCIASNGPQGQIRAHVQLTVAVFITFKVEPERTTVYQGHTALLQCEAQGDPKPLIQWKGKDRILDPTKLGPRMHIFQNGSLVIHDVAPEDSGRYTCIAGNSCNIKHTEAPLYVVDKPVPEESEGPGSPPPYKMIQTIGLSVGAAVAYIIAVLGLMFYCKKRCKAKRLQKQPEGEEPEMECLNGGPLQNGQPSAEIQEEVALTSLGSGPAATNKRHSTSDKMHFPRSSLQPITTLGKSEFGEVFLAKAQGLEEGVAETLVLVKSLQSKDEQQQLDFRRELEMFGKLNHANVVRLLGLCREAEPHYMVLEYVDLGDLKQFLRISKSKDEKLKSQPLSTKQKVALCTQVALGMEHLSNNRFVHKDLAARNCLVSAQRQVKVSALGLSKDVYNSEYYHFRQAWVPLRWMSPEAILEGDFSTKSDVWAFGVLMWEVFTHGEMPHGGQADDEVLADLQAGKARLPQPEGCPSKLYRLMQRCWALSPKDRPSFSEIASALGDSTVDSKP
# B1: ch13: human-murine chimeric PTK7 antibody, VH SEQ ID NO: 20, VL SEQ ID NO: 19 (antibody, V domains shown)
# VH: QVQLQQSGAELVRPGVSVKISCKGSGYTFTDYGMHWLKQSHAKSLEWIGVISPYYGDVTYNQKFKGKATMTVDKSSSTAYMELARLTSEDSAIYYCARGMGYWGQGTSVTVSS
# VL: DVQITQSPSYLAASPGETITINCRASQSISKYLAWYQEKPGKTNKLLIYSGSTLQSGIPSRFSGSGSGTDFTLTISSLEPEDFAMYYCQQHNEYPWTFGGGTKLEIK
# Assays:
# monkey PTK7 protein = test: Relative binding activity to monkey PTK7 by ELISA
# Method: (§1) Human PTK7 protein (Catalog No. PT7-H52H3, Acrobiosystems), monkey PTK7 protein (Catalog No. PT7-C52H3, Acrobiosystems), and murine PTK7 protein (Catalog No. PT7-M52H3, Acrobiosystems) were incubated at 4° C. overnight and immobilized onto a 96-well plate. The plate was then blocked by incubating at 37° C. with 1% BSA in PBS for 1 h. After blocking, the plate was washed 3 times with PBST (PBS containing 0.05% Tween 20). Serial dilutions of anti-PTK7 antibody as prepared in Example 2 of the present disclosure was prepared in a binding buffer (PBS containing 0.05% Tween20 and 0.5% BSA) and incubated with the immobilized proteins at 37° C. for 1 h. After binding, the plate was washed 3 times with PBST, incubated with peroxidase-labeled donkey anti-human IgG (Jackson ImmunoResearch) diluted at 1/15,000 in the binding buffer at 37° C. for 1 h, washed again, developed with TMB and terminated with 1M H2SO4. The absorbance at 450 nm-620 nm was measured.
# murine PTK7 protein = target: T1, murine PTK7 protein; test: Relative binding activity to murine PTK7 by ELISA; conditions: immobilized protein
# Method: as §1
# Human PTK7 protein = target: T2, Human PTK7 protein; test: Relative binding activity to human PTK7 by ELISA
# Method: as §1
molecule,measurement,setting,value
B1,binding to monkey PTK7 protein,monkey PTK7 protein; immobilized protein,specifically bind
same,affinity compared with h6M24 (positive control antibody),monkey PTK7 protein; monkey PTK7,significantly superior over that of h6M24
same,cross-reaction with mouse PTK7,murine PTK7 protein,neither ch13 nor h6M24 antibodies cross-react
same,affinity compared with h6M24 (positive control antibody),Human PTK7 protein; human PTK7,significantly superior over that of h6M24
same,binding to human PTK7 protein,Human PTK7 protein; immobilized protein,specifically bind
